Data taken from US20180044435A1 (GENEFRONTIER, published 2018).

Legend:
[1] = molecular target: T1, mouse membrane-anchored form ADAM28 (mouse, UniProt Q9JLN6 196-774); test: immunofluorescence staining of transfected CHO-K1 cells, 5 µg/ml antibody
T1 construct: Expressed on transfected CHO-K1 cells; also called mouse ADAM28m; mouse ADAM28
T1 chain: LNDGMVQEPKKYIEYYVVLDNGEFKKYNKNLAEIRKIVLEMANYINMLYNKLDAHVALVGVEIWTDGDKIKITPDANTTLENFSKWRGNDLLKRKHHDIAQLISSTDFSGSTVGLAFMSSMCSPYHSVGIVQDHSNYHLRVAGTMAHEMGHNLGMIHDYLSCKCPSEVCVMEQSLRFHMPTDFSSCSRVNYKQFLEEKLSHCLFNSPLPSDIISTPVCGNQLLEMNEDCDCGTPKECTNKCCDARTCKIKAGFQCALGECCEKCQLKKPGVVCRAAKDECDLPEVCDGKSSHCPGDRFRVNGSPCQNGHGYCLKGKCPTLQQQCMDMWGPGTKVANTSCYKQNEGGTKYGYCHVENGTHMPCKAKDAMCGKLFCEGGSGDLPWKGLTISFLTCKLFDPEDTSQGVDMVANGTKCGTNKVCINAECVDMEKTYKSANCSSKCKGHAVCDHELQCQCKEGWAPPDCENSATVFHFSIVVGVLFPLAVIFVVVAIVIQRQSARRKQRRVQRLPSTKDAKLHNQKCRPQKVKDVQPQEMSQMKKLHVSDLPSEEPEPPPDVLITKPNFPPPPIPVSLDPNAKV
Procedure: CHO-K1 cells co-transfected with mouse membrane-anchored form ADAM28 and EGFP were treated with 2B6D10 antibody (5 μg/ml) at 4° C. for 1.5 hr. The cells were washed and treated with anti-mouse IgG-Alexa555 (1:300) at 4° C. for 1 hr. The cells were washed, fixed and observed. The results are shown in, FIG. 3.

[2] = molecular target: fusion protein of MBP with region 524-562 of human membrane-anchored form ADAM28 (SEQ ID NO: 2) at its … (human); test: Western blotting
Procedure: The reactivity of anti-human membrane-anchored form ADAM28 antibody 2B6D10 with the above-mentioned fusion proteins was evaluated by Western blotting.

[3] = molecular target: T2, MBP-mouse ADAM28m 527-622 (mouse, UniProt Q9JLN6 527-622); test: SPR, BIAcore 3000, fusion protein amine-coupled on CM5 chip, antibody injected
T2 sequence: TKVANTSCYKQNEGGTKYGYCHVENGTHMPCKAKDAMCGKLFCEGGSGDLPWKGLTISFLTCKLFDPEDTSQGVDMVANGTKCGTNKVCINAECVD
Procedure: (§1) A fusion protein in which a 524-659 region of human membrane-anchored form ADAM28 (SEQ ID NO: 2) is added to C-terminal of MBP (MBP-human ADAM28m 524-659) and a fusion protein in which a 527-622 region of mouse membrane-anchored form ADAM28 (SEQ ID NO: 26) is added to C-terminal of MBP (MBP-mouse ADAM28m 527-622) were each immobilized on CM5 sensor chip (GE Healthcare Life Sciences, Buckinghamshire, UK) by amine-coupling and 2B6D10 antibody was injected to a flow cell by using BIAcore 3000 (GE Healthcare Life Sciences). The KD value was calculated from the measured Ka and Kd values.

[4] = molecular target: T3, MBP-human ADAM28m 524-659 (human, UniProt Q9UKQ2 524-659); test: as above
T3 construct: also called the immunogen
T3 sequence: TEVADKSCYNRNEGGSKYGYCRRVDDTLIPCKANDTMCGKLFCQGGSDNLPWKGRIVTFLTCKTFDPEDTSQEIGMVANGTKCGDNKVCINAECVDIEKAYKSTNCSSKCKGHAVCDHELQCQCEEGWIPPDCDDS
Procedure: as §1

B1: anti-human membrane-anchored form ADAM28 antibody 2B6D10 (antibody, V domains shown)
VH: QVQLQQSGAELARPGASVKLSCKASGYTFTSYGISWVKQRTGQGLEWIGEIYPRSGNTYYNEKFKGKATLTADKSSSTAYMELRRLTSEDSAVFFCARENVYSSNYGFAFWGQGTLVTVSA
VL: DVLMTQTPLSLPVSLGDQASISCRSSQNIIHSDGNTYLEWYLQKPGQSPKFLIYKVSNRFSGVPDRFSGSGSGTDFTLKISRVEAEDLGVYYCLQGSHVPWTFGGGTKLEIKR
notes: Mouse monoclonal antibody from a hybridoma, detected with anti-mouse IgG; also called 2B6D10 antibody; clone 2B6D10
binding result [1]: binds
binding result [2]: binds
Kd [3]: 236 pM
Kd [4]: 93.5 pM
